Measurements reported in patent US20220324932A1 (CSPC MEGALITH BIOPHARMACEUTICAL, published 2022).

T1: IL-2Rα (CD25) on the cell surface of mouse T cells (CTLL-2 cells; Treg cells of C57BL/6 mice) (mouse, UniProt P01590 22-268)
T1 sequence (looked up): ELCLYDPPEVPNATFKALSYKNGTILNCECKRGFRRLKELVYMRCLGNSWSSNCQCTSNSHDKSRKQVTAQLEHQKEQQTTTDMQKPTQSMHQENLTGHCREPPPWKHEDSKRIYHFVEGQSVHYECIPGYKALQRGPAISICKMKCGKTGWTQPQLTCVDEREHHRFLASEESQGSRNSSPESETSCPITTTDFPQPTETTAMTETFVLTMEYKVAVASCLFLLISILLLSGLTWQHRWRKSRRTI


Molecular target: T1, IL-2Rα (CD25) on the cell surface of …
Experiment: cell-based or functional assay

Binder | fold decrease in bioactivity in inducing CTLL-2 cell growth, compared to parent IL-2 Aldesleukin | percentage of Treg cells in blood of C57BL/6 mice after treatment
IL-2A2 (modified IL-2 protein with exogenous patch sequence IFKQTY replacing a portion of IL-2 Aldesleukin) (ligand) PTSSSTKKTQLQLEHLLLDLQMILNGINNYKNPKLTRMLIFKQTYPKKATELKHLQCLEEELKPLEEVLNLAQSKNFHLRPRDLISNINVIVLELKGSETTFMCEYADETATIVEFLNRWITFSQSIISTLT | ~49 fold | 0.32%
PEG-20K-IL-2A2 (IL-2A2 conjugated with 20 kDa methoxy-PEG-amine) (ligand, 20 kDa methoxy-PEG-amine conjugated by mTGase to the engineered Q residue of the IFKQTY patch) PTSSSTKKTQLQLEHLLLDLQMILNGINNYKNPKLTRMLIFKQTYPKKATELKHLQCLEEELKPLEEVLNLAQSKNFHLRPRDLISNINVIVLELKGSETTFMCEYADETATIVEFLNRWITFSQSIISTLT | – | 0.25%
